According to paper doi:10.1101/2024.07.03.601791:

Target: PR20 modified with a dansyl group at the N-terminus (Dnc-PR20)
Assay: other fluorescence titration

Kapβ2 Δloop, sequence (Q92973 9-898, stated change not applied): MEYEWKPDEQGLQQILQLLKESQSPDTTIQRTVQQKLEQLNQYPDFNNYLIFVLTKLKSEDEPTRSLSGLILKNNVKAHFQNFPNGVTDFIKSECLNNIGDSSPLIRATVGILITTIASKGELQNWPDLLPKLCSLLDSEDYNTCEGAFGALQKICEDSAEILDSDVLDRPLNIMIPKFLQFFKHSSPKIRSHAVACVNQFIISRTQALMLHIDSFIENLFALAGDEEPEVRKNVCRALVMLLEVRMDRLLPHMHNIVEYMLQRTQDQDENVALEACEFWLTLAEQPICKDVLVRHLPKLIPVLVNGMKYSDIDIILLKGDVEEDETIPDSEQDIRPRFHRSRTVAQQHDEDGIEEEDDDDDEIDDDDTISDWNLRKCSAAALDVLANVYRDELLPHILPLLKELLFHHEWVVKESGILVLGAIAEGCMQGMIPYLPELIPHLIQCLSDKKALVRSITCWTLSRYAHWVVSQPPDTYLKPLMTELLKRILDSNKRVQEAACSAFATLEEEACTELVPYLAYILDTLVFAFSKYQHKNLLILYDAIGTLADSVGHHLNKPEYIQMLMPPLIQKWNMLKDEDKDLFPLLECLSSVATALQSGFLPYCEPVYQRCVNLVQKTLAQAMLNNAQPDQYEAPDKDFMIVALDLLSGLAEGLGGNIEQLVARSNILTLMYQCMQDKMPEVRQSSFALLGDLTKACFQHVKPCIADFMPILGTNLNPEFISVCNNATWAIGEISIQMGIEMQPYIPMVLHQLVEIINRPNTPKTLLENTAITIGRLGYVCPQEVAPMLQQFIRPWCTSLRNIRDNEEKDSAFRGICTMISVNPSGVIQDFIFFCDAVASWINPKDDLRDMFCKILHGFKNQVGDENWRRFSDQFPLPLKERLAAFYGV

**Q.** “Kapβ2 Δloop (from UniProt Q92973-2 1-890) (natural protein)” was tested. Which Kd did it give?
**A.** 310 nM
